Test: yeast display, Sf9 membrane polyspecificity reagent, FACS + sequencing; frameworks hold sequencing errors
How it was run: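 Galactose induction of a Saccharomyces cerevisiae BJ5465 synthetic nanobody display library ran 36–48 hours. The cells were then stained for 1 hour at 4 °C with 10% biotinylated, detergent-solubilized Sf9 membrane reagent, pulled down on streptavidin microbeads and FACS-sorted into low and high (top ~1%) gates on expression and reagent-binding fluorescence. Labels for polyreactivity follow the gate of origin.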
With “QVQLVESGGGLVQAGGSLRLSCAASGSTFASYAMGWYRQAPGKETELVASITRRGCSTDYADSVKGRFTISRDNAKNTVDFPMNLLKPEDTAVYYCATYSYPERTGGHRTHYYWGQGTQVTVSS” the “polyreactivity (PSR sort gate)” value was “high polyreactivity”. For “QVQLVESGGGLVQAGGSLRLSCAASGSTFWIYAMGWYRQPPGKERELVAAISWSTGRTYYADSVKGRFTISRDNAKNTVYLQMNSLKPEDTAVYYCNAGPQHNTLKLFYYWGQGTQVTVSS”, the “polyreactivity (PSR sort gate)” value was “low polyreactivity”. For “QVQLVESGGGLVQAGGSLRLSCAASGYIFGHYTMGWYRPAPRKERELVAGITSGTRTYYADSVKGRFTISRDNAKNTVYLQMNSRKPDDTAVYYCAKRGPVRTQYTYYYWGQGTQVTVSS”, the “polyreactivity (PSR sort gate)” value was “high polyreactivity”. In the case of “QVQLVESGGGIVQAGGSLRISSAASGSIFGYYAMGWYIQEPGKERELVADITVRGGSTYYADSVKGRFTISRDNAKNTVYLQMNSLKPEDTAVYYCAAAQYTFWDGDSWGQGTQVTVSS”, the “polyreactivity (PSR sort gate)” value is reported as “high polyreactivity”. With “QVQLVESGGGLVQAGGSLRLSCADSGLIFEDYAMGWYRQAPGKERELVAAIDWGGGSTYYADSVKGRFTISRDNAKNTVYLQMNSLKPEDTAVYYCAADSYFSYRYNYWGQGTQVTVSS” the “polyreactivity (PSR sort gate)” value was “low polyreactivity”. With “QVQLVESGGGIVQAGGSLRLSFAASGSTFNSNVMGWYRQAPGKERELVAAISRSGGNTYYADSVKGRFTISRDNAKNTVYLLMNSLKPEDTAVYYCNKAGRYPYDYWGQGTQVTVSS” the “polyreactivity (PSR sort gate)” value was “high polyreactivity”. For “QVQLVESGGGLVQAGGSLRLSCAASGITLYKYTMGWYRQAPGKERELVAAISGGGSTTYADSVKGRFTISRDNAKNTVYLQMNSLKPEDTAVYYCNVPGGKPSYYEEYGYWGQGTQVTVSS”, the “polyreactivity (PSR sort gate)” value was “low polyreactivity”. For “QVQLVESGGGLVQAGGSLRLSCAASGFIFIVNAMGWYRQAPGKERELVATISSSGDITRYADSVKARFTISRDNAKNTVYLQMNSLKPEDTAVYYCAARLWTGYWGQGTQVTVSS”, the “polyreactivity (PSR sort gate)” value was “high polyreactivity”. For “QDQLVESGGGLVQAGGSLRLSCAASGRTIFRNAMGWYRQAPGKERELVAAITWSGGSTYYADSVKGRFTISRDNAKNTVYLQMNSLKPEDTAVYYCNRKRYGSDYEYWGQGTQVTVSS”, the “polyreactivity (PSR sort gate)” value was “low polyreactivity”. For “QVQLVESGGGLVQAGGSLRLSCAASGRIFNGNDMGWYRQAPGKERELVAAISYSGGSTYYADSVKGRFTISRDNAKNTVYLQMNSLKPEDTAVYYCAALTIRVGSLGRDYWVQGTQVTVSS”, the “polyreactivity (PSR sort gate)” value was “low polyreactivity”. With “QVQLVESGGGLVQAGGSLRLSCAASGSTFTTYAMGWYRQAPGKERELVAAISYGGGSTYYADSVKGRFTISRDNAKNTVYLQMNSLKPEDTAVYFCAAVAWASDGYDSWGQGTQVTVSS” the “polyreactivity (PSR sort gate)” value was “low polyreactivity”. For “QVQLVESGGGLVQAGGSLRLSCAASGSIFRGNAMGWYRQAPGKERELVAAISKSGGSTYYADSVKGRFTISRDNAKNTVYLQMNSLKPEDTAVYYCAARTTYLYGMYYWGQGTQVTVSS”, the “polyreactivity (PSR sort gate)” value was “low polyreactivity”. For “QVQLVESGGGLVQAGGSLRLSCAASGSTFSTYAMGWYRQAPGKERELVAAISRTGGSTYYADSVKGRFTISRDNAKNTVYLQMNSLKPEDTAVYYCAADEDWEYWAPWYDYWGQGTQVTVSS”, the “polyreactivity (PSR sort gate)” value was “low polyreactivity”. With “QVQLVESGGGLVQAGGSLRLSCAASGSISYKYAMGWYRQAPGKERELVAAISSSGGRTYYADSVKGRFTISRDNAKNTVYLQMNSLKPEDTAVYYCNADVLFYTYYTRGRFDFDYWGQGTQVTVSS” the “polyreactivity (PSR sort gate)” value was “low polyreactivity”. With “QVQLVESGGGLVQEGGSLRLSCAASGITFGRYAMGWYRQAPGKERELVAAITTRGGSTYYADSVKGRFTISRDNAKNTVYLQMNSLKPEDTAVYYCAARVPGVSVKNDYCGQGTQVTVSS” the “polyreactivity (PSR sort gate)” value was “high polyreactivity”. With “QVQLVESGGGLVQAGGSLRLSCAASGRILGKYAMGWYRQAPGKERELVAAIRLRGGSTYYADSVKGRFTISRDNAKNTVYLQMNSLKPEDTAVYYCAARYWDRSQAYTYWGQGTQVTVSS” the “polyreactivity (PSR sort gate)” value was “high polyreactivity”. In the case of “QVQLVESGGGLVHAGGSLRLSCAASGINFFPYAMGWYRQAPGKERELVASINISDSSTYYADSVKGRFTISRDNAKNTVYLQMNSLKPEDTAVYYCAADNRGDSWYWHGYWGQGTQVSVSS”, the “polyreactivity (PSR sort gate)” value is reported as “low polyreactivity”. With “QVQLVESGGGLVQAGGSLRLSCAASGSTFYPYAMGWYRQAPGNERELVAALDRGGSTSYADSVKGRFTISRDNAKNTVYLQMIRLKPEDTAVYYCAVARGGRRKYEYWGQGTQVTVSS” the “polyreactivity (PSR sort gate)” value was “low polyreactivity”. With “QVQHVESGGVLVQAGGSLRLSCAASGRTFISNVMGWYRPAPGKERELVAGITGGGNTYYADSVKGRFTISRDNAKNTVYLQMNSLKPEDTAVYYCAVRYPSYGLSYVRYGYWGQGTQLTVSS” the “polyreactivity (PSR sort gate)” value was “high polyreactivity”. In the case of “QVQLVESGGGLVQAGGSLRLSCAASGFIFRDNTMGWYRQAPGKEREFVAGITKSGGSTYYADSVKGRFTISRDNAKNTVYLQMNSLKPEDTAVYYCAAYVPYTRYDYWGQGTQVTVSS”, the “polyreactivity (PSR sort gate)” value is reported as “high polyreactivity”. In the case of “QVQLVESGGGLVQAGGSLRLSCAASGNIFVVNAMGWYRQAPGKERELVAGITTNGGRTFYADSVKGRFTISRDNAKNTVYLQINSLKPEDTAVYYWNARHGRHRRTRFAKYDYWGQGTQVTVSS”, the “polyreactivity (PSR sort gate)” value is reported as “high polyreactivity”.

— the nanobody polyreactivity screen of Harvey et al. (2022)
